Reference: patent US20150344570A1 (published 2015)

T1: FcγRIIb extracellular domain with C-terminal His tag (human, UniProt P31994 43-217)
T1 construct: extracellular domain; Soluble receptor expressed in FreeStyle293 cells, used as analyte in Biacore; also called FcgRIIb; 2b; not shown: His tag attached to the C terminus
T1 sequence (looked up): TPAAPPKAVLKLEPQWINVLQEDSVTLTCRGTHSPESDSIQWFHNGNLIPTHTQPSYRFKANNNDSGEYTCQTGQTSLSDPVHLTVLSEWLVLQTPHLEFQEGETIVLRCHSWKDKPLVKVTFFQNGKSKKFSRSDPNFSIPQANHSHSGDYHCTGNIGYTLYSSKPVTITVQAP

B1: GpH7-B3 variant Y296_20W/GpL16-k0 (Ho Ab) (antibody, human IgG1, kappa)
heavy: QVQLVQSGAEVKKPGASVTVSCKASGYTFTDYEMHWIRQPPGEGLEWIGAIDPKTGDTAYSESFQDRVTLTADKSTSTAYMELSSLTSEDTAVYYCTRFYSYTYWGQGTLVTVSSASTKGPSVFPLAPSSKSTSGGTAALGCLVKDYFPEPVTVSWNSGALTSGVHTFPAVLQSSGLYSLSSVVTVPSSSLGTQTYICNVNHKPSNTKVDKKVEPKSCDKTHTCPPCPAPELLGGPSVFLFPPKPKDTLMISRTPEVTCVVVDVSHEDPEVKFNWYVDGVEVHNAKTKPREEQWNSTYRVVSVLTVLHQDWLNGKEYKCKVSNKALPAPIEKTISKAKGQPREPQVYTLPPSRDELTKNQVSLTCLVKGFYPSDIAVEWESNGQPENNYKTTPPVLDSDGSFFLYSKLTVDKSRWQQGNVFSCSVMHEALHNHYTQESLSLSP
light: DIVMTQSPLSLPVTPGEPASISCQASESLVHSNRNTYLHWYLQKPGQSPQLLIYKVSNRFSGVPDRFSGSGSGTDFTLKISRVEAEDVGVYYCSQNTHVPPTFGQGTKVEIERTVAAPSVFIFPPSDEQLKSGTASVVCLLNNFYPREAKVQWKVDNALQSGNSQESVTEQDSKDSTYSLSSTLTLSKADYEKHKVYACEVTHQGLSSPVTKSFNRGEC
notes: Homodimerized anti-glypican-3 antibody; the alteration stands in both H chains
B2: GpH7-A5/GpH7-B3 variant S267_20W/GpL16-k0 (antibody, human IgG1, kappa)
heavy 1: not shown
heavy 2: not shown
light: B1 light
notes: Heterodimerized antibody (He Ab) with the mutation in only one H chain; also called He Ab S267W
B3: GpH7-B3 variant Y300_08L/GpL16-k0 (Ho Ab) (antibody, human IgG1, kappa)
heavy: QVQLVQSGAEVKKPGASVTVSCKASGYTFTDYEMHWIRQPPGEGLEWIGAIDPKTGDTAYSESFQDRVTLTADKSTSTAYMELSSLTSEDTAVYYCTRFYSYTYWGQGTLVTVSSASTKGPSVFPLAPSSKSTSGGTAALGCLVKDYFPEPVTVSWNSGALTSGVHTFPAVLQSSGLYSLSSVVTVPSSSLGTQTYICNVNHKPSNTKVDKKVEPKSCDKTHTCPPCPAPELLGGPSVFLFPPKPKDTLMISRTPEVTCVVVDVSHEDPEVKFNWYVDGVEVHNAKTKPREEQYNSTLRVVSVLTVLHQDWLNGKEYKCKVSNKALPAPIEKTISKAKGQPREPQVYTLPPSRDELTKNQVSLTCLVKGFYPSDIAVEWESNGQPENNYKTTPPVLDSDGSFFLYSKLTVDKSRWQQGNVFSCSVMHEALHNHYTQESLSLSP
light: B1 light
notes: as for B1
B4: GpH7-B3 variant T335_05P/GpL16-k0 (Ho Ab) (antibody, human IgG1, kappa)
heavy: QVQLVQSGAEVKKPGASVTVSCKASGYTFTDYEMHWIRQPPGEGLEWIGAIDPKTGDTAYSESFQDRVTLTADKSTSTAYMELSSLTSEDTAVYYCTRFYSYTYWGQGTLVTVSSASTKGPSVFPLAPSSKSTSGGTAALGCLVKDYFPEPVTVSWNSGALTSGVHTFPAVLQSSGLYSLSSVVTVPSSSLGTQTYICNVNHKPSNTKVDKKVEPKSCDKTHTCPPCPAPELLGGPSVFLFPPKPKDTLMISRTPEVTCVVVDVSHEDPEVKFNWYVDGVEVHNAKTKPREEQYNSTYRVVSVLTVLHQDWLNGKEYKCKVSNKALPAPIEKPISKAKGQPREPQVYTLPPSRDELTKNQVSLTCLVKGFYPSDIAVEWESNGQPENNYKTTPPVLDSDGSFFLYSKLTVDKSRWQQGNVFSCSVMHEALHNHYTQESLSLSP
light: B1 light
notes: as for B1
B5: GpH7-A5/GpH7-B3 variant T335_06M/GpL16-k0 (He Ab) (antibody, human IgG1, kappa)
heavy 1: not shown
heavy 2: not shown
light: B1 light
notes: Heterodimerized anti-glypican-3 antibody; the alteration stands only in the GpH7-B3 chain
B6: GpH7-A5/GpH7-B3 variant S298_03V/GpL16-k0 (He Ab) (antibody, human IgG1, kappa)
heavy 1: not shown
heavy 2: not shown
light: B1 light
notes: as for B5
B7: GpH7-A5/GpH7-B3 variant S337_16H/GpL16-k0 (He Ab) (antibody, human IgG1, kappa)
heavy 1: not shown
heavy 2: not shown
light: B1 light
notes: as for B5
B8: GpH7-B3 variant S239_10E/GpL16-k0 (Ho Ab) (antibody, human IgG1, kappa)
heavy: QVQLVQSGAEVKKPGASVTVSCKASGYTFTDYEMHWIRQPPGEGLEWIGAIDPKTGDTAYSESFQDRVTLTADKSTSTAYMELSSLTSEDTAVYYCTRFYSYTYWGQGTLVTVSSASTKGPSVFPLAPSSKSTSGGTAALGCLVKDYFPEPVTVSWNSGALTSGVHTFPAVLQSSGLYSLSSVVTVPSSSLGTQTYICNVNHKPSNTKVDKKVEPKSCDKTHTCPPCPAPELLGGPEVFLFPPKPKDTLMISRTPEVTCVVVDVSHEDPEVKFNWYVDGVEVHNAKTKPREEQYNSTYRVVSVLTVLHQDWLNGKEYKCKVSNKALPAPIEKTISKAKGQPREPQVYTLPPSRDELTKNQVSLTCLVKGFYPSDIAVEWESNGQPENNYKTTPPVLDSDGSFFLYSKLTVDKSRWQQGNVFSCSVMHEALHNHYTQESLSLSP
light: B1 light
notes: Homodimerized anti-glypican-3 antibody; the alteration stands in both H chains (GpH7-B3 = GpH7-G1d with K439E)
B9: GpH7-A5/GpH7-B3 variant H268_20W/GpL16-k0 (antibody, human IgG1, kappa)
heavy 1: not shown
heavy 2: not shown
light: B1 light
notes: Heterodimerized antibody (He Ab) with the mutation in only one H chain; also called He Ab H268W
B10: GpH7-A5/GpH7-B3 variant S267_14T/GpL16-k0 (antibody, human IgG1, kappa)
heavy 1: not shown
heavy 2: not shown
light: B1 light
notes: Heterodimerized antibody (He Ab) with the mutation in only one H chain; also called He Ab S267T
B11: GpH7-A5/GpH7-B3 variant T335_05P/GpL16-k0 (He Ab) (antibody, human IgG1, kappa)
heavy 1: not shown
heavy 2: not shown
light: B1 light
notes: as for B5
B12: GpH7-A5/GpH7-B3 variant S267_19Q/GpL16-k0 (antibody, human IgG1, kappa)
heavy 1: not shown
heavy 2: not shown
light: B1 light
notes: Heterodimerized antibody (He Ab) with the mutation in only one H chain; also called He Ab S267Q
B13: GpH7-B3 variant T335_09D/GpL16-k0 (Ho Ab) (antibody, human IgG1, kappa)
heavy: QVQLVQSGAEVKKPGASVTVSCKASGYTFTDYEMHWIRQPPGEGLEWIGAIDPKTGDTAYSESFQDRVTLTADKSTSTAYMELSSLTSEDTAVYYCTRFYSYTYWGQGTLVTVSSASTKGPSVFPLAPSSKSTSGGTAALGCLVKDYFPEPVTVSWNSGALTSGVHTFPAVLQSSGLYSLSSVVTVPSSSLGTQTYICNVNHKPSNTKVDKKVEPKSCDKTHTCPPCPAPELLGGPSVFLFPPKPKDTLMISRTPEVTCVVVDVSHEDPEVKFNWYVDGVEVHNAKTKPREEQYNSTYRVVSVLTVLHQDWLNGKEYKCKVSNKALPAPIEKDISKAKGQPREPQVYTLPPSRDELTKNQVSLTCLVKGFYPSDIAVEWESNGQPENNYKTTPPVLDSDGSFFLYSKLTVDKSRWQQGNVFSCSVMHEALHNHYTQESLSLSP
light: B1 light
notes: as for B1
B14: GpH7-A5/GpH7-B3 variant S267_15Y/GpL16-k0 (antibody, human IgG1, kappa)
heavy 1: not shown
heavy 2: not shown
light: B1 light
notes: Heterodimerized antibody (He Ab) with the mutation in only one H chain; also called He Ab S267Y
B15: GpH7-A5/GpH7-B3 variant S267_10E/GpL16-k0 (antibody, human IgG1, kappa)
heavy 1: not shown
heavy 2: not shown
light: B1 light
notes: Heterodimerized antibody (He Ab) with the mutation in only one H chain; also called He Ab S267E
B16: GpH7-A5/GpH7-B3 variant S324_14T/GpL16-k0 (He Ab) (antibody, human IgG1, kappa)
heavy 1: not shown
heavy 2: not shown
light: B1 light
notes: as for B5
B17: GpH7-B3 variant S324_20W/GpL16-k0 (Ho Ab) (antibody, human IgG1, kappa)
heavy: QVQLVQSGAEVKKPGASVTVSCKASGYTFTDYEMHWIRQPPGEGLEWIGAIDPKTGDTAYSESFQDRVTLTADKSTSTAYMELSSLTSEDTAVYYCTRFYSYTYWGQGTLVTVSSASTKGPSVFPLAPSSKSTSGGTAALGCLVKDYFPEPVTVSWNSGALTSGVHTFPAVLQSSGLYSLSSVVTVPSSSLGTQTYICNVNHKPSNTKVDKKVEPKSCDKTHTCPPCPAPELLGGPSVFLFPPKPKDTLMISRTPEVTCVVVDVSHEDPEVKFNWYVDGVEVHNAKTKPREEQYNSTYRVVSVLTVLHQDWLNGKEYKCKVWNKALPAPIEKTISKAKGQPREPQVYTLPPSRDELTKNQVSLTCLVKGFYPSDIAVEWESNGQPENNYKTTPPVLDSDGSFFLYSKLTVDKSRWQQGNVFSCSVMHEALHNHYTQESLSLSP
light: B1 light
notes: as for B1
B18: GpH7-A5/GpH7-B3 variant H268_18N/GpL16-k0 (antibody, human IgG1, kappa)
heavy 1: not shown
heavy 2: not shown
light: B1 light
notes: Heterodimerized antibody (He Ab) with the mutation in only one H chain; also called He Ab H268N
B19: GpH7-A5/GpH7-B3 variant S267_16H/GpL16-k0 (antibody, human IgG1, kappa)
heavy 1: not shown
heavy 2: not shown
light: B1 light
notes: Heterodimerized antibody (He Ab) with the mutation in only one H chain; also called He Ab S267H
B20: GpH7-B3 variant S337_01G/GpL16-k0 (Ho Ab) (antibody, human IgG1, kappa)
heavy: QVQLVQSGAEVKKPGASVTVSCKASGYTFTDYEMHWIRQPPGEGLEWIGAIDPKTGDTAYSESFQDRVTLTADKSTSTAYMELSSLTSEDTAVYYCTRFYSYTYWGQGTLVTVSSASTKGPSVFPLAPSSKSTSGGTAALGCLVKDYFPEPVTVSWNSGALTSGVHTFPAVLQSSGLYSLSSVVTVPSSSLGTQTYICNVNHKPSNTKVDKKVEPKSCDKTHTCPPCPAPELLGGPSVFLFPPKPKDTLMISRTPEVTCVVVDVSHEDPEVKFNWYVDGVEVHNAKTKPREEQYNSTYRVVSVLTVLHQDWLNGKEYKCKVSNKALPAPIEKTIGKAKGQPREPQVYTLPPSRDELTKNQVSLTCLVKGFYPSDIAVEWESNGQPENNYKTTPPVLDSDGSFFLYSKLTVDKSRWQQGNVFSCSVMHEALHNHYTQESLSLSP
light: B1 light
notes: as for B1
B21: GpH7-A5/GpH7-B3 variant S239_18N/GpL16-k0 (He Ab) (antibody, human IgG1, kappa)
heavy 1: not shown
heavy 2: not shown
light: B1 light
notes: as for B5
B22: GpH7-B3 variant S239_18N/GpL16-k0 (Ho Ab) (antibody, human IgG1, kappa)
heavy: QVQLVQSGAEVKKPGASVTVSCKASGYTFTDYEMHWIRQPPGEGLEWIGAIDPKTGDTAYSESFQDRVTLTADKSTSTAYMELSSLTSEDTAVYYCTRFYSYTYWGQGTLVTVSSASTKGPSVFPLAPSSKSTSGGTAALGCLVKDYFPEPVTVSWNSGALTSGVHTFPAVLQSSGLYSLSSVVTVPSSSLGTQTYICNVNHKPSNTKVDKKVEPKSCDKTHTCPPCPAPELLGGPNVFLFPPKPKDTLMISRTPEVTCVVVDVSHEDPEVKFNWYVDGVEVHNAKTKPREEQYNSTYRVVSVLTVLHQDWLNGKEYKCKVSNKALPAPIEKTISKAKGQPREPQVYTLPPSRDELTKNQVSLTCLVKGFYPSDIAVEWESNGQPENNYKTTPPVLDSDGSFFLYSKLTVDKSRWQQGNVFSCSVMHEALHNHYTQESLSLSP
light: B1 light
notes: as for B1
B23: GpH7-A5/GpH7-B3 variant S337_01G/GpL16-k0 (He Ab) (antibody, human IgG1, kappa)
heavy 1: not shown
heavy 2: not shown
light: B1 light
notes: as for B5

Legend:
FcγRIIIa [1] = target: T2, FcγRIIIa (human, UniProt P08637 17-208); test: SPR (Biacore), antibody captured on antigen-peptide chip, FcγR as analyte; binding of Ho Ab / binding of HoCon Ab GpH7-B3/GpL16-k0 x 100
T2 construct: extracellular domain; also called 3a; FcgRIIIa
Experimental: (§1) Analysis of interaction between objective antibody and the FcγR was carried out using Biacore T100 (GE Healthcare). HBS-EP+ (GE Healthcare) was used as the running buffer, and the measurement temperature was set to 25° C. Chips produced by immobilizing the antigen peptide by the amine coupling method to a Series S Sencor Chip CM5 (GE Healthcare), or alternatively, chips produced by allowing preliminarily biotinylated antigen peptides to interact with and immobilize onto a Series S Sensor Chip SA (certified) (GE Healthcare) were used. Antibodies of interest were captured onto an antigen peptide-immobilized chip, and allowed to interact to each FcγR diluted with running buffer. To regenerate and repeatedly use the chip, the antibodies captured on the chip were washed off by reacting 10 mM glycine-HCl, pH 1.5.

[2] = target: T3, FcγRIIIa extracellular domain with C-terminal His tag (human, UniProt P08637 17-208); test: SPR (Biacore); He/Con_3a (FcγRIIIa) divided by He/Con_2b (FcγRIIb)
T3 construct: extracellular domain; also called FcgRIIIa; 3a; not shown: His tag attached to the C terminus

[3] = target: T1, FcγRIIb extracellular domain with …; test: SPR (Biacore T100), antibody captured on antigen peptide chip, FcγR as analyte
Experimental: as §1

[4] = target: T3, FcγRIIIa extracellular domain with …; test: as above
Experimental: as §1

FcγRIIIa [5] = target: T2, FcγRIIIa; test: SPR (Biacore), antibody captured on antigen-peptide chip, FcγR as analyte; binding of He Ab / binding of HeCon Ab GpH7-A5/GpH7-B3/GpL16-k0 x 100

T3 sequence (P08637 17-208): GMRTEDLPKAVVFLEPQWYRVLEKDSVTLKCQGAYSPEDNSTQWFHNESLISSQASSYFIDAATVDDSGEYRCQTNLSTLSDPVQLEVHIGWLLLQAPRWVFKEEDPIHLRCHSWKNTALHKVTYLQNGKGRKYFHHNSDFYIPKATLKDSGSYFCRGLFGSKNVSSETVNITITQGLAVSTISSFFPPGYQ
T2 sequence (P08637 17-208): as above

| Binder | Ho/Con_3a (FcγRIIIa [1]) | He_3a/2b (IIIa/IIb) [2] | He/Con_2b [3] | He/Con_3a [4] | He/Con_3a (FcγRIIIa [5]) |
| --- | --- | --- | --- | --- | --- |
| B1 | 146 relative to control = 100 |  |  |  |  |
| B2 |  | 0.37 ratio | 57.2 relative binding, GpH7-A5/GpH7-B3/GpL16-k0 = 100 | 21.5 relative binding, GpH7-A5/GpH7-B3/GpL16-k0 = 100 |  |
| B3 | 105 relative to control = 100 |  |  |  |  |
| B4 | 119 relative to control = 100 |  |  |  |  |
| B5 |  |  |  |  | 102 relative to control = 100 |
| B6 |  |  |  |  | 109 relative to control = 100 |
| B7 |  |  |  |  | 108 relative to control = 100 |
| B8 | 252 relative to control = 100 |  |  |  |  |
| B9 |  | 0.74 ratio | 111 relative binding, GpH7-A5/GpH7-B3/GpL16-k0 = 100 | 82.8 relative binding, GpH7-A5/GpH7-B3/GpL16-k0 = 100 |  |
| B10 |  | 0.44 ratio | 104 relative binding, GpH7-A5/GpH7-B3/GpL16-k0 = 100 | 45.6 relative binding, GpH7-A5/GpH7-B3/GpL16-k0 = 100 |  |
| B11 |  |  |  |  | 105 relative to control = 100 |
| B12 |  | 0.3 ratio | 218 relative binding, GpH7-A5/GpH7-B3/GpL16-k0 = 100 | 65 relative binding, GpH7-A5/GpH7-B3/GpL16-k0 = 100 |  |
| B13 | 114 relative to control = 100 |  |  |  |  |
| B14 |  | 0.31 ratio | 37.9 relative binding, GpH7-A5/GpH7-B3/GpL16-k0 = 100 | 11.8 relative binding, GpH7-A5/GpH7-B3/GpL16-k0 = 100 |  |
| B15 |  | 0.24 ratio | 379 relative binding, GpH7-A5/GpH7-B3/GpL16-k0 = 100 | 91.9 relative binding, GpH7-A5/GpH7-B3/GpL16-k0 = 100 |  |
| B16 |  |  |  |  | 103 relative to control = 100 |
| B17 | 102 relative to control = 100 |  |  |  |  |
| B18 |  | 0.67 ratio | 156 relative binding, GpH7-A5/GpH7-B3/GpL16-k0 = 100 | 104 relative binding, GpH7-A5/GpH7-B3/GpL16-k0 = 100 |  |
| B19 |  | 0.27 ratio | 65.9 relative binding, GpH7-A5/GpH7-B3/GpL16-k0 = 100 | 17.9 relative binding, GpH7-A5/GpH7-B3/GpL16-k0 = 100 |  |
| B20 | 108 relative to control = 100 |  |  |  |  |
| B21 |  |  |  |  | 110 relative to control = 100 |
| B22 | 116 relative to control = 100 |  |  |  |  |
| B23 |  |  |  |  | 102 relative to control = 100 |
